IntAct's records for PubMed 19427866

The substances below were run against T1, nbr1_human NBR1 (UniProt Q14596).
T1 sequence: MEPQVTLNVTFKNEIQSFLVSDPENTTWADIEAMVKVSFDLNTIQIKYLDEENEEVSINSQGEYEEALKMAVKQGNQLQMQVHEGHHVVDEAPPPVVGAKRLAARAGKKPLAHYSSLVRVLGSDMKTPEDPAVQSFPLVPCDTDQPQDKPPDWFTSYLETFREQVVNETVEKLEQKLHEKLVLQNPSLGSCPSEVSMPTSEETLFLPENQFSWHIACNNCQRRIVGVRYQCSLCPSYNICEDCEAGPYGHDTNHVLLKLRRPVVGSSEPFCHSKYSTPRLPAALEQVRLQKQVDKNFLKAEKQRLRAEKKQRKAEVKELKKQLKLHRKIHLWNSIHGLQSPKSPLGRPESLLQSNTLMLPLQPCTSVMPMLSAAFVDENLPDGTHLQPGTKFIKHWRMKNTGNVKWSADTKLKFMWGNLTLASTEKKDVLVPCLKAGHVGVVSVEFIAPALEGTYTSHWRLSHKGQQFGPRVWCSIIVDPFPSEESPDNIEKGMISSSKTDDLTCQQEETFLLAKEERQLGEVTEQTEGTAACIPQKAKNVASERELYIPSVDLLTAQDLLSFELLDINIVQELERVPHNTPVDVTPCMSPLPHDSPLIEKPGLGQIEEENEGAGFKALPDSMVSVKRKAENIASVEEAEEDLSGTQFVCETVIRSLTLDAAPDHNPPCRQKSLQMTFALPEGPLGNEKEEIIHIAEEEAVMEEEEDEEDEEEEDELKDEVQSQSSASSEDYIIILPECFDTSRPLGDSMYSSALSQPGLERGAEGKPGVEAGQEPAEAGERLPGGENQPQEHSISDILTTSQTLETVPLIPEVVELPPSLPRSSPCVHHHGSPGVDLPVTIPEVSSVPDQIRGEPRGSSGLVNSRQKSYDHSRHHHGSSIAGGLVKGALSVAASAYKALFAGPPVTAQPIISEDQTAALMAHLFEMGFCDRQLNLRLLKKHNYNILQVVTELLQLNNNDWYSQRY

Substance | effect of a mutation on the interaction
Polyubiquitin-C (Homo sapiens) (from UniProt P0CG48) K33R | decreasing interaction
Polyubiquitin-C (Homo sapiens) (from UniProt P0CG48) K48R | decreasing interaction
Polyubiquitin-C (Homo sapiens) (from UniProt P0CG48) K63R | decreasing interaction
